From FireProtDB
“And” between values parts separate entries of the source, which are not always exact repeats. Identical values can stand only once.

Settings: whole UniProt chain shown
[1] = Staphylococcus aureus (strain NCTC 8325 / PS 47), pH 8.5, Urea, fluorescence, Tris-Cl, transition: 2, reversible: yes
[2] = Rattus norvegicus, pH 7, 25 °C, Urea, CD, Sodium phosphate 25 mM, NaCl 75 mM, reversible: yes
[3] = Rattus norvegicus, pH 7, 25 °C, Urea, Fluorescence, Sodium phosphate 25 mM, NaCl 75 mM, reversible: yes
[4] = Rattus norvegicus, pH 7, 27 °C, Urea, CD, Phosphate 10 mM
[5] = Rattus norvegicus, pH 7, 27 °C, Urea, Magnetic Relaxation Dispersion, Phosphate 10 mM
[6] = Rattus norvegicus, pH 7.2, 20 °C, GdnHCl, Fluorescence, Potassium phosphate 20 mM, reversible: yes
[7] = Rattus norvegicus, pH 7.4, 20 °C, GdnHCl, CD, Potassium phosphate 20 mM, reversible: yes
[8] = Rattus norvegicus, pH 7.4, 20 °C, GdnHCl, Fluorescence, Potassium phosphate 20 mM, reversible: yes
[9] = Rattus norvegicus, pH 9.6, 20 °C, GdnHCl, Fluorescence, Sodium pyrophosphate 20 mM, reversible: yes
[10] = Saccharolobus solfataricus (strain ATCC 35092 / DSM 1617 / JCM 11322 / P2), pH 5.5, Thermal, CD, Acetate 50 mM
[11] = Rattus norvegicus, pH 7.5, Thermal, CD, phosphate 10 mM, NaF 100 mM, reversible: yes

B1: Putative peptidyl-prolyl cis-trans isomerase wild type, Q2FZU9 (protein)
chain: MANYPQLNKEVQQGEIKVVMHTNKGDMTFKLFPNIAPKTVENFVTHAKNGYYDGITFHRVINDFMIQGGDPTATGMGGESIYGGAFEDEFSLNAFNLYGALSMANSGPNTNGSQFFIVQMKEVPQNMLSQLADGGWPQPIVDAYGEKGGTPWLDQKHTVFGQIIDGETTLEDIANTKVGPQDKPLHDVVIESIDVEE
- denaturant m value [1]: 0.85 kcal/mol/M and 1.18 kcal/mol/M
- denaturant midpoint (higher = more stable) [1]: 3.19 M and 1.83 M
- unfolding free energy [1]: 2.66 kcal/mol and 2.17 kcal/mol

B2: Fatty acid-binding protein, brain wild type, P55051 (protein)
chain: MVDAFCATWKLTDSQNFDEYMKALGVGFATRQVGNVTKPTVIISQEGGKVVIRTQCTFKNTEISFQLGEEFEETSIDDRNCKSVIRLDGDKLIHVQKWDGKETNCVREIKDGKMVVTLTFGDVVAVRCYEKA
- denaturant m value [2]: 1.04 kcal/mol/M
- denaturant midpoint (higher = more stable) [2]: 4.1 M
- unfolding free energy [2]: 4.28 kcal/mol
- denaturant m value [3]: 1.13 kcal/mol/M
- denaturant midpoint (higher = more stable) [3]: 4.24 M
- unfolding free energy [3]: 4.79 kcal/mol
- denaturant m value [4]: 1 kcal/mol/M
- denaturant midpoint (higher = more stable) [4]: 5.1 M
- denaturant m value [5]: 0.88 kcal/mol/M
- denaturant midpoint (higher = more stable) [5]: 6.5 M
- denaturant midpoint (higher = more stable) [6]: 1.36 M
- unfolding free energy [6]: 5.22 kcal/mol
- denaturant m value [7]: 5.33 kcal/mol/M
- denaturant midpoint (higher = more stable) [7]: 1.32 M
- unfolding free energy [7]: 7.06 kcal/mol
- denaturant m value [8]: 3.82 kcal/mol/M
- denaturant midpoint (higher = more stable) [8]: 1.36 M
- unfolding free energy [8]: 5.22 kcal/mol
- unfolding free energy (Rattus norvegicus, pH 8, 25 °C, Urea, CD, NaH2PO4 25 mM/, NaCl 75 mM, reversible: Yes): 5.86 kcal/mol
- unfolding free energy (Rattus norvegicus, pH 8, 25 °C, Urea, Fluorescence, NaH2PO4 25 mM/, NaCl 75 mM, reversible: Yes): 5.28 kcal/mol
- denaturant midpoint (higher = more stable) [9]: 1.41 M
- unfolding free energy [9]: 5.59 kcal/mol

B3: Cytochrome c2 wild type, P00094 (protein)
chain: MKISLTAATVAALVLAAPAFAGDAAKGEKEFNKCKTCHSIIAPDGTEIVKGAKTGPNLYGVVGRTAGTYPEFKYKDSIVALGASGFAWTEEDIATYVKDPGAFLKEKLDDKKAKTGMAFKLAKGGEDVAAYLASVVK
- denaturant midpoint (higher = more stable) (Rhodobacter capsulatus (strain ATCC BAA-309 / NBRC 16581 / SB1003), pH 7.5, 30 °C, GdnHCl, CD, Tris 20 mM): 1.54 M

B4: Acylphosphatase wild type, Q97ZL0 (protein)
chain: MKKWSDTEVFEMLKRMYARVYGLVQGVGFRKFVQIHAIRLGIKGYAKNLPDGSVEVVAEGYEEALSKLLERIKQGPPAAEVEKVDYSFSEYKGEFEDFETY
- unfolding free energy (Saccharolobus solfataricus (strain ATCC 35092 / DSM 1617 / JCM 11322 / P2), pH 5.5, 28 °C, GdnHCl, CD, Acetate 50 mM): 11.6 kcal/mol
- unfolding free energy (Saccharolobus solfataricus (strain ATCC 35092 / DSM 1617 / JCM 11322 / P2), pH 5.5, 81 °C, GdnHCl, CD, Acetate 50 mM): 4.94 kcal/mol
- Tm [10]: 101 °C
- heat capacity change of unfolding [10]: 1.15 kcal/mol/K
- unfolding enthalpy (van 't Hoff) [10]: 105 kcal/mol

B5: Homeobox protein Nkx-2.1 wild type, P23441 (protein)
chain: MSMSPKHTTPFSVSDILSPLEESYKKVGMEGGGLGAPLAAYRQGQAAPPAAAMQQHAVGHHGAVTAAYHMTAAGVPQLSHSAVGGYCNGNLGNMSELPPYQDTMRNSASGPGWYGANPDPRFPAISRFMGPASGMNMSGMGGLGSLGDVSKNMAPLPSAPRRKRRVLFSQAQVYELERRFKQQKYLSAPEREHLASMIHLTPTQVKIWFQNHRYKMKRQAKDKAAQQQLQQDSGGGGGGGGGAGCPQQQQAQQQSPRRVAVPVLVKDGKPCQAGAPAPGAASLQGHAQQQAQQQAQAAQAAAAAISVGSGGAGLGAHPGHQPGSAGQSPDLAHHAASPAALQGQVSSLSHLNSSGSDYGAMSCSTLLYGRTW
- unfolding free energy (Rattus norvegicus, pH 7.5, 25 °C, Urea, CD, phosphate 10 mM, NaF 100 mM, reversible: yes): 1.26 kcal/mol
- Tm [11]: 42.8 °C
- unfolding free energy [11]: 1.44 kcal/mol

B6: Methylated-DNA--protein-cysteine methyltransferase wild type, Q97VW7 (protein)
chain: MLVYGLYKSPLGYITVAKDDKGFIMLDFCDCVEGNSRDDSSFTEFFHKLDLYFEGKPINLREPINLKTYPFRLSVFKEVMKIPWGKVMTYKQIADSLGTSPRAVGMALSKNPILLIIPCHRVIAENGIGGYSRGVKLKRALLELEGVKIPE
- Tm (Saccharolobus solfataricus (strain ATCC 35092 / DSM 1617 / JCM 11322 / P2), pH 7.4, Thermal, DSF, PBS, transition: 2): 82.9 °C

B7: Cytochrome b5 wild type, P00173 (protein)
chain: MAEQSDKDVKYYTLEEIQKHKDSKSTWVILHHKVYDLTKFLEEHPGGEEVLREQAGGDATENFEDVGHSTDARELSKTYIIGELHPDDRSKIAKPSETLITTVESNSSWWTNWVIPAISALVVALMYRLYMAED
- Tm (Rattus norvegicus, pH 7, Thermal, UV spectroscopy, Sodium phosphate 50 mM, reversible: Yes): 93.1 °C

B8: Cytochrome b5 type B wild type, P04166 (protein)
chain: MATPEASGSGRNGQGSDPAVTYYRLEEVAKRNTAEETWMVIHGRVYDITRFLSEHPGGEEVLLEQAGADATESFEDVGHSPDAREMLKQYYIGDVHPNDLKPKDGDKDPSKNNSCQSSWAYWIVPIVGAILIGFLYRHFWADSKSS
- denaturant midpoint (higher = more stable) (Rattus norvegicus, pH 7, 25 °C, GdmSCN, UV/visible spectrophotometer, MOPS 30mM): 2.04 M
- Tm (Rattus norvegicus, pH 7, Thermal, UV/visible spectrophotometer, Potassium phosphate 50mM): 85.5 °C

B9: Parvalbumin alpha wild type, P02625 (protein)
chain: MSMTDLLSAEDIKKAIGAFTAADSFDHKKFFQMVGLKKKSADDVKKVFHILDKDKSGFIEEDELGSILKGFSSDARDLSAKETKTLMAAGDKDGDGKIGVEEFSTLVAES
- unfolding free energy (Rattus norvegicus, pH 7.74, 30 °C, Thermal, CD, piperazine 10 mM, KCl 200 mM): 0.7 kcal/mol
- Tm (Rattus norvegicus, pH 7.74, Thermal, CD, piperazine 10 mM, KCl 200 mM): 35 °C

B10: Cytidine deaminase wild type, Q9S3M0 (protein)
chain: MDVEKLIAESKKAREQAYVPYSKFPVGAALLAEDGTIYHGCNIENSAYSMTNCAERTAFFKAVSDGVRSFKALAVVADTEGPVSPCGACRQVIAEFCNGSMPVYLTNLKGDIEETTVAKLLPGAFSKEDLSYAAEQ
- unfolding free energy (Sporosarcina psychrophila, pH 7, 25 °C, GdnHCl, CD, potassium phosphate 20 mM, reversible: no): 3 kcal/mol
